In patent US20220259289A1 (Janssen / Centocor, published 2022):

B1: ISOP193ER9P1A3 (designed binder, not shown: small tags and cut ends)
chain: LPAPKNLVVSRVTEDSARLSWTTPDAAFDSFDIYYFEHPVGGEAIVLTVPGSERSYDLTGLKPGTEYLVTIYGVKGGYLSKPLSAIFTT
B2: ISOP193ER9P1E1 (designed binder, not shown: small tags and cut ends)
chain: LPAPKNLVVSRVTEDSARLSWTAPDAAFDSFDIYYFEHPVGGEAIVLTVPGSERSYDLTGLKPGTEYLVTIYGVKGGSVSIPLSAIFTT
B3: ISOP193ER9P1E2 (designed binder, not shown: small tags and cut ends)
chain: LPAPKNLVVSRVTEDSARLSWTAPDAAFDSFDIYYFEHPVGGEAIVLTVPGSERSYDLTGLKPGTEYLVTIYGVKGGFWSQPLSAIFTT
B4: ISOP193ER9P1C4 (designed binder, not shown: small tags and cut ends)
chain: LPAPKNLVVSRVTEDSARLSWTAPDAAFDSFDIYYFEHPVGGEAIVLTVPGSERSYDLTGLKPGTEYLVTIYGVKGGIWSVPLSAIFTT
B5: ISOP193ER9P1D4 (designed binder, not shown: small tags and cut ends)
chain: LPAPKNLVVSRVTEDSARLSWTAPDAAFDSFDIYYFEHPVGGEAIVLTVPGSERSYDLTGLKPGTEYLVTIYGVKGGTYSPPLSAIFTT
B6: ISOP193ER9P1C10 (designed binder, not shown: small tags and cut ends)
chain: LLAPKNLVVSRVTEDSARLSWIAPDAAFDSFEIYYKELRAEGEAIVLTVPGSERSYDLTGLKPGTEYLVTIYGVKGGSVSIPLSAIFTT
B7: ISOP193ER9P1G9 (designed binder, not shown: small tags and cut ends)
chain: LPAPKNLVVSRVTEDSARLSWTAPDAAFDSFDIYYFEHPVGGEAIVLTVPGSERSYDLTGLKPGTEYLVTIYGVKGGNGSSPLSAIFTT
B8: ISOP193ER9P1A4 (designed binder, not shown: small tags and cut ends)
chain: LPAPKNLIVSRVTEDSARLSWTAPDAAFDSFEIYYKELRAEGEAIVLTVPGSERSYDLTGLKPGTEYLVTIYGVKGGSVSIPLSAIFTT
B9: ISOP193ER9P1G2 (designed binder, not shown: small tags and cut ends)
chain: LPAPKNLVVSRVTEDSARLSWTAPDAAFDSFDIYYFEQPVGGEAIVLTVPGSERSYDLTGLKPGTEYLVTIYGVKGGYLSMPLSAIFTT
B10: ISOP193ER9P1C9 (designed binder, not shown: small tags and cut ends)
chain: LPAPKNLVVSRVTEDSARLSWTAPDAAFDSFDIYYFEHPVGGEAIVLTVPGSERSYDLTGLKPGTEYLVTIYGVKGGELSKPLSAISTT

Key:
[1] = target: T1, recombinant human CD137-Fc-IgG1 (human, UniProt Q07011 24-186, limits assumed); assay: SPR (Biacore T100), CD137-Fc captured by anti human IgG, 1:1 model
T1 construct: Captured by anti human IgG on the Biacore chip
Experimental: For selected FN3 domains, binding to recombinant CD137-Fc was evaluated using surface plasmon resonance (Biacore T100). For each cycle approximately 500 RU of recombinant human CD137-Fc-IgG1 was captured via an anti human IgG immobilized on the surface of a CMS chip. Once CD137-Fc protein was captured, increasing concentrations of Centyrin candidates were injected for 120 s and dissociation was then analyzed for 240 s. A flow cell immobilized with just the anti human IgG1 antibody served as reference flow cell. Kd values were subsequently extrapolated using a 1:1 kinetic binding model (BiaEvaluation software).

[2] = target: T2, recombinant biotinylated CD137 protein (Fc-fusion protein, R&D Systems 838-4B) (human, UniProt Q07011 24-186, biotinylated, sites not stated); assay: ELISA, lysate on biotinylated CD137-Fc
T2 construct: Bought Fc fusion; also called CD137-Fc
Method in brief: (§1)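 Biotinylated CD137-Fc, an unrelated Fc-fusion protein or human serum albumin captured 1 h on streptavidin plates blocked in Starting Block T20; diluted bacterial lysate applied 1 h. Bound binders detected with HRP-conjugated anti-Centyrin antibody (PAB25) for 1 h, then POD substrate read-out.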

[3] = target: T3, human serum albumin (human, UniProt P02768 25-609); assay: ELISA, negative control HSA
T3 construct: Negative control of the ELISA; also called HSA
T3 sequence (P02768 25-609 limits assumed): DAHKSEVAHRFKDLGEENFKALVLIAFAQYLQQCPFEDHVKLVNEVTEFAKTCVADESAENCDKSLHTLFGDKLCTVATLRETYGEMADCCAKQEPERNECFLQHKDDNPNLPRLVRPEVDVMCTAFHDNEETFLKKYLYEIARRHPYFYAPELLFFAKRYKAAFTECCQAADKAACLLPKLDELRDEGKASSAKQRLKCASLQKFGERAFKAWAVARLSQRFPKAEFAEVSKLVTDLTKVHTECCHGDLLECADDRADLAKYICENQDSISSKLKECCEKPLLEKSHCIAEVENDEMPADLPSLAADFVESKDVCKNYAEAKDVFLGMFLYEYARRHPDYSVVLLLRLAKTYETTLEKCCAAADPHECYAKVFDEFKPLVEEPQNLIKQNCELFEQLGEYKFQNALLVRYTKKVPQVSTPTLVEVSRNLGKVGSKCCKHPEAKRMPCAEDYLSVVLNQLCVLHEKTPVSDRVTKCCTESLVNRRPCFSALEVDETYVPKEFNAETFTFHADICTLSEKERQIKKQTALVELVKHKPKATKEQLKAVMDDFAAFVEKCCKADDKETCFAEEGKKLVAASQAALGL
Method in brief: as §1

[4] = target: extracellular domain of human CD137 on the surface of CHO-K1 cells (human, UniProt Q07011 24-186); assay: flow cytometry on CHO-K1 cells with human CD137 ECD
Experimental: Cell surface binding was analyzed via flow cytometry. Cenyrins were prepared at a maximal concentration of 500 nM in the presence of 125 nM anti His-mIgG1 antibody and then serially diluted in PBS/1% FCS buffer. Samples were then applied to approx 100 000 CHO-Kl cells expressing the extracellular domain of human CD137 on their surface. Unbound Centyrin/Antibody complexes were washed away and bound FN3 domains were detected by the addition of goat anti mouse-FITC labeled antibody. Samples were then aquired by flow cytometry. Subsequently, Mean flurescence intensity was plotted against the log Centyrin concentration and EC50 values were calculated by nonlinear regression using GraphPad Prism.

[5] = target: unrelated Fc-fused recombinant protein; assay: ELISA, negative control Fc protein

Row | Binder | Kd [1] [nM] | ELISA CD137 (RLU) [2] [RLU] | ELISA HSA (RLU) [3] [RLU] | EC50 [4] [nM] | ELISA Fc Control (RLU) [5] [RLU]
1 | B1 | 8.3 | 1.42e+07 | 880 | 10.2 | 3040
2 | B2 | 10.6 | 1.5e+07 | 560 | 12.6 | 1200
3 | B3 | 10.9 | 1.57e+07 | 560 | 15.3 | 1040
4 | B4 | 13.1 | 1.55e+07 | 320 | 18.9 | 960
5 | B5 | 9.55 | 1.6e+07 | 480 | 12.9 | 1120
6 | B6 | 108 | 8.87e+06 | 560 | 31 | 2480
7 | B7 | 59.9 | 1.29e+07 | 400 | 15.3 | 1280
8 | B8 | 117 | 9.81e+06 | 480 | 27.1 | 960
9 | B9 | 65.6 | 7.19e+06 | 720 | 22.9 | 1680
10 | B10 | 25.1 | 1.43e+07 | 560 | 14.1 | 880
